Where “and” joins values, the source holds several entries; their conditions need not be identical. Equal entries are not always repeated. Where two headings read alike, the source gives them in different places.
Key:
[1] = target: UHRF1 PHD finger PHD (Mus musculus) (UniProt Q8VDF2); settings: cited from earlier work
[2] = target: UHRF1 PHD finger PHD (Homo sapiens) (UniProt Q96T88); settings: cited from earlier work
[3] = target: UHRF1 PHD finger PHD (Mus musculus) (UniProt Q8VDF2); settings: cited from earlier work; remark: listed apart in the source
[4] = target: UHRF1 PHD finger PHD (Homo sapiens) (UniProt Q96T88); settings: cited from earlier work; remark: listed apart in the source
[5] = target: human UHRF1 PHD finger, residues 299-366, D334A/D337A (human) (UniProt Q96T88); experiment: ITC; Microcal PEAQ-ITC, 293 K, 10 mM HEPES pH 7.5, 150 mM NaCl, 0.25 mM TCEP, one-site model; which partner was titrated is not stated; single titrations and their means
Chain of human UHRF1 PHD finger, residues 299-366, D334A/D337A (human) (Q96T88 299-366 D334A/D337A): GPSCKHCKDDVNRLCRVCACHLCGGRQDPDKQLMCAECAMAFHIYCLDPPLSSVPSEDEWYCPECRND

hPHD D334A/D337A (human) = hPHD D334A/D337A (human) (UniProt Q96T88); experiment: ITC; Microcal PEAQ-ITC, 293 K, 10 mM HEPES pH 7.5, 150 mM NaCl, 0.25 mM TCEP; one-site model; at least three independent titrations
Chain of hPHD D334A/D337A (human) (Q96T88 299-366 D334A/D337A): as above

Chain of UHRF1 PHD finger PHD (Homo sapiens) (Q96T88 307-369): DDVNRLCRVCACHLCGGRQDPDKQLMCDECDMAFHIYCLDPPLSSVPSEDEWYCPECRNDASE
Chain of UHRF1 PHD finger PHD (Mus musculus) (Q8VDF2 301-374): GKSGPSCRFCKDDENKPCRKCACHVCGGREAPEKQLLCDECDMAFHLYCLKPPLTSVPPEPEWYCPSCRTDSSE
Chain of PAF15 (Q15004 whole entry): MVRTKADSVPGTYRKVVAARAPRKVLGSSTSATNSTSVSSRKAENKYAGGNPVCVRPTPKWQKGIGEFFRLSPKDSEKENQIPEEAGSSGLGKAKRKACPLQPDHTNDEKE
Chain of PAF15 1-10 (Q15004 whole entry, looked up, tested part not stated): as the sequence (Q15004 whole entry) above
Chain of DPPA3 (Q8QZY3 whole entry): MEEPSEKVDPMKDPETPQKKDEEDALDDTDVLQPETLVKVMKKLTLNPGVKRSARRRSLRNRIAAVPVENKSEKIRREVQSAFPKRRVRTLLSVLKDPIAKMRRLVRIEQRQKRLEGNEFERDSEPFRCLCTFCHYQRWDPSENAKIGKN

Substance: DPPA3 (from UniProt Q8QZY3)
- Kd [1]: 27.7 nM

Substance: PAF15 1-10 (from UniProt Q15004)
- Kd [2]: 2200 nM

Substance: PAF15 (from UniProt Q15004)
- Kd [3]: 3.52 µM

Substance: histone H3 1-15 (from UniProt P68431)
- Kd [4]: 1700 nM

Substance: human DPPA3, residues 81-118 (domain or fragment)
- Kd [5]: 114 µM and 91 µM and 139 µM

Substance: human DPPA3, residues 81–118 (recombinant) (domain or fragment)
- Kd (hPHD D334A/D337A (human)): > 115 µM
